Assays:
[1] = molecular target: T1, extracellular portion of MET (EC-MET) (human, UniProt P08581); assay: ELISA; plates coated with 1 μg/mL MET or SEMA in PBS overnight at 4°C; blocked with PBS, 3% BSA, 20 mM EDTA, 0.05% Tween 20; mAbs from 64 μg/mL in 4-fold dilutions, 1 h room temperature; anti-IgG-HRP, OD650; conditions: both partners purified
T1 construct: MET, human, 908-amino acid extracellular portion; tags printed as HHHHHH and …; EC-MET was biotinylated with BirA for cell sorting only; also called recombinant ectodomain of MET; source: Expi293F, transient transfection, purified from supernatant (Ni-NTA); not shown: His6, C-terminal, kept; Avi-Tag, C-terminal, kept
T1 sequence (P08581 25-932): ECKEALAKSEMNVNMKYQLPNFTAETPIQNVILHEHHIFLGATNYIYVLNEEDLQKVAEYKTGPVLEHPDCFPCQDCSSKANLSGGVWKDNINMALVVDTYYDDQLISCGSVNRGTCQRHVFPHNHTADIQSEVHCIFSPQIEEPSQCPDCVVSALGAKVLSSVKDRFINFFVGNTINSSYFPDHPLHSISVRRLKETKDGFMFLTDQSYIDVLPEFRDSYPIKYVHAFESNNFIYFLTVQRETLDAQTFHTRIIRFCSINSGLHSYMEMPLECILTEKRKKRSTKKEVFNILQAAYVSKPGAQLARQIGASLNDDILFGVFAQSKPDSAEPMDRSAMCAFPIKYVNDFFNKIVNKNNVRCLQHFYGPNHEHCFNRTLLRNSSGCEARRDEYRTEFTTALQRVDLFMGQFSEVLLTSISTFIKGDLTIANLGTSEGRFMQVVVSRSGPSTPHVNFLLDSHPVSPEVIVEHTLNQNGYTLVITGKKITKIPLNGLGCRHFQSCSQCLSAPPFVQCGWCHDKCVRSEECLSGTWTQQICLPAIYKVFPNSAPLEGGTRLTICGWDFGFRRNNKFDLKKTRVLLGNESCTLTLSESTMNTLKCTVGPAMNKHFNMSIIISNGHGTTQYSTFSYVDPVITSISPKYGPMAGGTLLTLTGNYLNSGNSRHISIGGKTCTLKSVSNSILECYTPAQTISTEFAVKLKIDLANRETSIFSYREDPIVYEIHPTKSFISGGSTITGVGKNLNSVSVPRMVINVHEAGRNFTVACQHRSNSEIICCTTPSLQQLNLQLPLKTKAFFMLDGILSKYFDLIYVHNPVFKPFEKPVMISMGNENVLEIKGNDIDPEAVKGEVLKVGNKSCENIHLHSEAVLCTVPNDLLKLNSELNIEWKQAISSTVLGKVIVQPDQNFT

[2] = molecular target: T2, SEMA, the ligand-binding domain of MET (Homo sapiens, UniProt P08581); assay: as above; conditions: both partners purified
T2 construct: source: Expi293F, transient transfection, purified from supernatant (Ni-NTA); not shown: His6, C-terminal, kept; Avi-Tag, C-terminal, kept
T2 sequence (P08581 27-515): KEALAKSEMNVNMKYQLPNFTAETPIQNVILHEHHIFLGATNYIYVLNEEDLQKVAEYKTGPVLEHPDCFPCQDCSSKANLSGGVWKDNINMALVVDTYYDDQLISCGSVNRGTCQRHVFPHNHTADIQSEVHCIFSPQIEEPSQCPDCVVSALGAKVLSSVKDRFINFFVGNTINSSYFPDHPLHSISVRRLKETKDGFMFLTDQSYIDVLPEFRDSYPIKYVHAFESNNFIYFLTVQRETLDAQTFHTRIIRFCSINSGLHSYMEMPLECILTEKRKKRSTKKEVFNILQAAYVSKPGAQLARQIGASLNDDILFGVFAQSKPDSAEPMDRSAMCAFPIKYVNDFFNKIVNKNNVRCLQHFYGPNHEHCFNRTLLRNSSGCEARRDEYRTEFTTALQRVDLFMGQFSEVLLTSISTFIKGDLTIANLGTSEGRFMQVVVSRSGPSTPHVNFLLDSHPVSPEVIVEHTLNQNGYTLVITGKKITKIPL

B1: mAb 69B253 (antibody, V domains shown)
VH: EVQLVESGGALVQPGGSLRLSCAASGFTFSSYGMGWVRQAPGKGLEWVSVIIGSGGSTSYVDSVRGRFTISRDNSRNMVYLQMSSLTVDDTAVYYCAKAACGVGFCYRSHWGQGTRVTVSS
VL: SLSVSPGETVTLSCRASQSVSSNLAWYQHKPGQAPRLLIHDASTRATGIPVRFSGSGSGTDFTLTISSLQSEDFAVYYCQHYYNWPYGFAQGTKLEIK
notes: heavy chain V(D)J region; light chain VJ region; light chain constant region of the Ig expression vector; Cloned from a MET-enriched B cell of a cancer patient; detected with anti-IgG secondary antibody; source: Expi293F, cotransfected heavy and light chain vectors, purified (protein A)
- binding result [1]: binds
- binding result [2]: binds
